Data set [1] deals with MB49-FFX-ACQ bladder carcinoma cells. In words: Chemotherapy-resistant MB49-FFX-ACQ tumour model in hCD40tg mice. The data set is classed as in vivo, mouse. The following applies: FIG. 7B/7C. The protocol:
Note: All mice were dosed with flat doses and mg/kg doses reported herein are based on an average mouse weight of 20 g (0.02 kg).
As FOLFIRINOX is composed of four individual components, it was dosed over the course of two days, for a total of three cycles. Mice first received oxaliplatin followed by irinotecan, followed the day after by folinic acid and 2 hours after that, mice were dosed with 5-fluorouracil.
Three days following the initiation of the dosing of FOLFIRINOX, mitazalimab was administered in 5% glucose (dextrose buffer) at 5 mg/kg.
The dosing regimen applied in the two efficacy studies detailing number of doses and their relation to one another is outlined in FIG. 5. […]
On day 0, ten- to twelve-week-old female hCD40tg mice were injected subcutaneously on the right hind flank with 0.4×10^6 MB49-FOLFIRINOX-ACQ in a volume of 100 μl PBS. […] Controls or antibodies were administered as outlined in Table 24, and mice were monitored shortly following each treatment to detect potential signs of toxicity. Tumor volume was measured three times weekly with a calliper and calculated as: ((width/2×length/2×height/2)×[…]). […]
Collected data was analyzed using Kaplan Meier and Log-rank (Mantel-Cox) for survival and Mann-Whitney, non-parametric, 2-tail for FACS data and tumor growth using GraphPad Prism program (*, p<0.05; **, p<0.01). […]

Data set [2] concerns advanced stage solid malignancies. The conditions noted are these: cited from earlier work.

Read-outs that look alike come from different tables or passages of the source.

B1: Mitazalimab: agonistic, human monoclonal (IgG1) antibody targeting CD40 (antibody, chains of the INN, looked up, V domains shown)
VH: EVQLLESGGGLVQPGGSLRLSCAASGFTFSTYGMHWVRQAPGKGLEWLSYISGGSSYIFYADSVRGRFTISRDNSENALYLQMNSLRAEDTAVYYCARILRGGSGMDLWGQGTLVTVSS
VL: QSVLTQPPSASGTPGQRVTISCTGSSSNIGAGYNVYWYQQLPGTAPKLLIYGNINRPSGVPDRFSGSKSGTSASLAISGLRSEDEADYYCAAWDKSISGLVFGGGTKLTVL
On to B1, for which, in data set [1], the “effect on tumour growth in chemo-resistant tumours” value was “synergises with FOLFIRINOX”. Moreover, the best response entry in data set [2] (400 μg/kg intratumoural) is reported as “stable disease (SD) in one patient with renal cell carcinoma”. The “patients with increases in liver enzymes or bilirubin” value in data set [2] (IV administration) is reported as 3 of 5; in data set [2] (intratumoural administration), 9 of 18. The “dose-limiting toxicities (DLTs) observed” value in data set [2] (both intratumoural: grade 3 abdominal pain, grade 3 cholecystitis) was “Two”. Moreover, in data set [2] (in vivo), the “maximum tolerated dose (MTD)” value is recorded as “No maximum tolerated dose (MTD) was identified”.

Source of the values: US20260055200A1, “COMBINATION THERAPIES” (Alligator Bioscience AB, priority 2022, published 2026).
